Target: tubulin purified on a phosphocellulose column (mouse)
Experiment: cell-based or functional assay

Sequence of tubulin purified on a phosphocellulose column (mouse) (P68369 whole entry, chain 1 of 2): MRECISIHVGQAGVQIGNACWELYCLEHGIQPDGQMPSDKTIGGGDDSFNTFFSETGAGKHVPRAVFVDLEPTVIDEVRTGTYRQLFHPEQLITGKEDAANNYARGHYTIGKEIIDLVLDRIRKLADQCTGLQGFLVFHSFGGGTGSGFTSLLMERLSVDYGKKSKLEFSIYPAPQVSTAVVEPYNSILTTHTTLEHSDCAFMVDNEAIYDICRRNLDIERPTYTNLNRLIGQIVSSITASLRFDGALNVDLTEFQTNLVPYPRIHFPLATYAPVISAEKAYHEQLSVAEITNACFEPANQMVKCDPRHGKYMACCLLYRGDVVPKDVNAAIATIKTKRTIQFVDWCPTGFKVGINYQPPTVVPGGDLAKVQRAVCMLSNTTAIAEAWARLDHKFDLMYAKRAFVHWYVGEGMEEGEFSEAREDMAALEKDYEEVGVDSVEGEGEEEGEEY
Sequence of tubulin purified on a phosphocellulose column (mouse) (Q9ERD7 whole entry, chain 2 of 2, further chain): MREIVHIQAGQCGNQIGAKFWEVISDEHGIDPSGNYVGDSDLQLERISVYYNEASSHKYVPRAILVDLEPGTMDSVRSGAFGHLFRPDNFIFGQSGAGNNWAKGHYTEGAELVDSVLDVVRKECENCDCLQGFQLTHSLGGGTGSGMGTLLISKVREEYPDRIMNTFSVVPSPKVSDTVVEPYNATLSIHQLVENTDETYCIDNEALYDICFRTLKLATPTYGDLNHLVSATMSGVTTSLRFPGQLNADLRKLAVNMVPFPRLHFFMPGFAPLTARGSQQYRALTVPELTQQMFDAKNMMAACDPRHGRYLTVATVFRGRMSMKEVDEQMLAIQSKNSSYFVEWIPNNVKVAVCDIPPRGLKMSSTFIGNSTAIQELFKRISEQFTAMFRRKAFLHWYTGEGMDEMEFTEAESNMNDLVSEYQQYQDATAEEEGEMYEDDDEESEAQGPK

| inhibition of tubulin polymerization (% inhibition at 100 µM) | T98G cells in phase G1 after 48 hours with 10 µM peptide (FACS; 39% in untreated cultures) (% of cells in G1) | Substance |
| --- | --- | --- |
| 30 | – | Neurofilament high subunit-Tubulin Binding Site (NFH-TBS) (peptide) |
| 30 | – | Neurofilament Light subunit-Tubulin Binding Site 1 (NFL-TBS1) (peptide) |
| 100 | 61 | Neurofilament Light subunit-Tubulin Binding Site 2 (NFL-TBS2) (peptide) |
| 30 | – | Neurofilament Medium subunit-Tubulin Binding Site (NFM-TBS) (peptide) |
